Results as given in paper PMC11904002.

Molecular target: T1, Signal peptide peptidase (SPP), human, with a C-terminal myc-tag (human), Q8TCT9
T1 chain: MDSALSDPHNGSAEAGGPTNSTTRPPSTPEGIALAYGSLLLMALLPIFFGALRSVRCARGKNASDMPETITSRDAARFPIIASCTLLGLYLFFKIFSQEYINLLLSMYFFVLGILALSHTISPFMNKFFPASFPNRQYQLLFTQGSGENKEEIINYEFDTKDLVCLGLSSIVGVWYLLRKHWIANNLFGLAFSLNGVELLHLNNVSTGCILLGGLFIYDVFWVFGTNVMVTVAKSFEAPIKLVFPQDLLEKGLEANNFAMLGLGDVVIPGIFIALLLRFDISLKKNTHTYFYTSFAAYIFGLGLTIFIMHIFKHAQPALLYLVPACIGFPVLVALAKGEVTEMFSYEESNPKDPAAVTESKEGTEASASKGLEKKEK
Assay: SDS-PAGE and Western blot of cell lysate; lysate of transfected HEK cells (50 mM Tris/HCl pH 7.4, 150 mM NaCl, 1% Triton X-100, 0.1% SDS); SDS-PAGE with tris-glycine buffer; SPP band at the size of a dimer
Details: remark: other sources report otherwise

B1: Signal peptide peptidase (SPP), human, with a C-terminal myc-tag, Q8TCT9-1 1-377 (enzyme)
chain: MDSALSDPHNGSAEAGGPTNSTTRPPSTPEGIALAYGSLLLMALLPIFFGALRSVRCARGKNASDMPETITSRDAARFPIIASCTLLGLYLFFKIFSQEYINLLLSMYFFVLGILALSHTISPFMNKFFPASFPNRQYQLLFTQGSGENKEEIINYEFDTKDLVCLGLSSIVGVWYLLRKHWIANNLFGLAFSLNGVELLHLNNVSTGCILLGGLFIYDVFWVFGTNVMVTVAKSFEAPIKLVFPQDLLEKGLEANNFAMLGLGDVVIPGIFIALLLRFDISLKKNTHTYFYTSFAAYIFGLGLTIFIMHIFKHAQPALLYLVPACIGFPVLVALAKGEVTEMFSYEESNPKDPAAVTESKEGTEASASKGLEKKEK
- stoichiometry N: 2
